Source: patent US20250066509A1
Substitutions are numbered along the chain they refer to. Values belong to the binder of their own block, whether it stands above or below them.

Target: human FGFR1c/βKlotho receptor (human), P11362
Test: cell-based or functional assay

Sequence of human FGFR1c/βKlotho receptor (human), P11362 (P11362 22-822, chain 1 of 2): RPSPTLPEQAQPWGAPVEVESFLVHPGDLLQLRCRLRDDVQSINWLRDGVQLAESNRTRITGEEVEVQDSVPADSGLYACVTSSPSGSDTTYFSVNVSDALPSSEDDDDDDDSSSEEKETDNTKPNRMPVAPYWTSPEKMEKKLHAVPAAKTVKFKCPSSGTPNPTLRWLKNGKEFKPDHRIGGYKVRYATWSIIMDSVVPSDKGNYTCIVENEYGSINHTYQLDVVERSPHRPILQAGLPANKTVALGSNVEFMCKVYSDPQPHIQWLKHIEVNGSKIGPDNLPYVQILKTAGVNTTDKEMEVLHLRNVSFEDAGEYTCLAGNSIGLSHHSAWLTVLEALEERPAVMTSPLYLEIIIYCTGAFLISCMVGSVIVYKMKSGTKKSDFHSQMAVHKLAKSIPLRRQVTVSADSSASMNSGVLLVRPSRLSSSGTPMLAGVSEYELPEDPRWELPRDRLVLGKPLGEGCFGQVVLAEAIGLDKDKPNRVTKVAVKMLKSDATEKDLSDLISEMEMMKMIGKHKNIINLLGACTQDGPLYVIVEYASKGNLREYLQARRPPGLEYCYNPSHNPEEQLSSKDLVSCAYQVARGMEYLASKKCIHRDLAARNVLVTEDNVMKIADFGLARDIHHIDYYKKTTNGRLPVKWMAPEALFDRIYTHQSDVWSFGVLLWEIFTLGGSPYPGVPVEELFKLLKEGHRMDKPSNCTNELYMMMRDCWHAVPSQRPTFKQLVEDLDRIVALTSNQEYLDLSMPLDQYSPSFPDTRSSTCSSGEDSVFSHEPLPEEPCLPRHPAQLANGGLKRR
Sequence of human FGFR1c/βKlotho receptor (human), P11362 (chain, as listed by the source, chain 2 of 2): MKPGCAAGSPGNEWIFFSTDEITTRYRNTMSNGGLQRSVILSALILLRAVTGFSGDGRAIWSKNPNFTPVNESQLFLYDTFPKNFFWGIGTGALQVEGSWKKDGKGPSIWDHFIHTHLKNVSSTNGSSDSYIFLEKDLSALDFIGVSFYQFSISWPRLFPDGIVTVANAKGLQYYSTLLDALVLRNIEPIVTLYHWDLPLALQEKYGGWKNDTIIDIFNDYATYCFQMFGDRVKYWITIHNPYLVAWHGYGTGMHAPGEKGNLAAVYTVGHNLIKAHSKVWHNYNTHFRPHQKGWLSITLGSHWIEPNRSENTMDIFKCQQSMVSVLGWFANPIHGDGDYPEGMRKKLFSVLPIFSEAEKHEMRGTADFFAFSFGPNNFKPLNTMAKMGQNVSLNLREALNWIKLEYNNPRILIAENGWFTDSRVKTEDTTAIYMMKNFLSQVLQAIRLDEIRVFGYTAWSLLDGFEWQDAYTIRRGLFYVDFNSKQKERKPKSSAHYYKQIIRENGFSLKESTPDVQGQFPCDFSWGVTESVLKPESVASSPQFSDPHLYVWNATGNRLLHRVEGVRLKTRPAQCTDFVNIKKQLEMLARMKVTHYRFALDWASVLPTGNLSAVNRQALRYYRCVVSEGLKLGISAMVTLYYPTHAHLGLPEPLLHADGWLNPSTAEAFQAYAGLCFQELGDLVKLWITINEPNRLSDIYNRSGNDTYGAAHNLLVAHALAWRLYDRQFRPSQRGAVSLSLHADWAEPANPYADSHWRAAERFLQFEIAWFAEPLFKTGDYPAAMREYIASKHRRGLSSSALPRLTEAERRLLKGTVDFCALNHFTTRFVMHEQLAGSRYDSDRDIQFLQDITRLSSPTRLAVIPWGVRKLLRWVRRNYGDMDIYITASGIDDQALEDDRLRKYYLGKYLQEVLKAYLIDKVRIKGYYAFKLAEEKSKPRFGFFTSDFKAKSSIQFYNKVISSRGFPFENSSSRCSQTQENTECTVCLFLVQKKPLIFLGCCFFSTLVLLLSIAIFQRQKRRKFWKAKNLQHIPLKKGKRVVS

- EC50, luciferase reporter-based assay (receptor activation): 1.31 nM
- EC50 for antibody-induced cell activation, as determined by the reporter-based assay: 3.74 nM
B1: CB-8 (antibody, V domains shown)
VH: EVQLVQSGAEVKKPGASVKVSCKASGYTFTSYGISWVRQAPGQGLEWMGWISAYNGNTNYAQKLQGRVTMTTDTSTSTAYMELRSLRSDDTAVYYCATLYGSGSLYYWGQGTLVTVSS
VL: DIVMTQSPSSLSAPVGDRVTITCQASQDIRNYINWFQQKPGKAPKLLIYAASSLQSGVPSRFSGSGSGTDFTLTISSLQPEDFATYYCQQSYSTPQWTFGQGTKVEIK

- EC50 for antibody-induced cell activation, as determined by the reporter-based assay: 0.66 nM
B2: CB-8-26 (antibody, human IgG1, V domains shown)
VH: B1 VH with T30K, N57R
VL: B1 VL with S53G

- EC50 for antibody-induced cell activation, as determined by the reporter-based assay: 0.68 nM
B3: CB-8-24 (antibody, V domains shown)
VH: B1 VH with Y100L, G101P
VL: B1 VL

- EC50 for antibody-induced cell activation, as determined by the reporter-based assay: 0.89 nM
B4: CB-8-40 (antibody, human IgG1, V domains shown)
VH: B1 VH with N55S
VL: B1 VL with S53Y

- EC50 for antibody-induced cell activation, as determined by the reporter-based assay: 1.43 nM
B5: CB-8-41 (antibody, human IgG1, V domains shown)
VH: B1 VH with T28L, N55T
VL: B1 VL with S53H

- EC50 for antibody-induced cell activation, as determined by the reporter-based assay: 0.57 nM
B6: CB-8-23 (antibody, human IgG1, V domains shown)
VH: B1 VH with Y32G, N57R
VL: B1 VL with S53F

- EC50 for antibody-induced cell activation, as determined by the reporter-based assay: 0.92 nM
B7: CB-8-37 (antibody, human IgG1, V domains shown)
VH: B1 VH with T28A, N55S
VL: B1 VL with S53F

- EC50 for antibody-induced cell activation, as determined by the reporter-based assay: 0.95 nM
B8: CB-8-14 (antibody, human IgG1, V domains shown)
VH: B1 VH with T30R, N55T
VL: B1 VL with L54R

- EC50 for antibody-induced cell activation, as determined by the reporter-based assay: 1.39 nM
B9: CB-8-13 (antibody, human IgG1, V domains shown)
VH: B1 VH with T28R, N57R
VL: B1 VL with S53R
